The target in assay [1] is T1, AOS1/UBA2, heterodimeric SUMO E1 activating enzyme, recombinant (human, UniProt Q9UBE0 1-346; Q9UBT2 1-640).
T1 construct: expressed from pET11d-UBA2; The N-terminal end of the His tag follows from the printed offset of +23 aa; also called SAE1/SAE2; not shown: 6His, N-terminal, kept
T1 sequence (looked up) 1: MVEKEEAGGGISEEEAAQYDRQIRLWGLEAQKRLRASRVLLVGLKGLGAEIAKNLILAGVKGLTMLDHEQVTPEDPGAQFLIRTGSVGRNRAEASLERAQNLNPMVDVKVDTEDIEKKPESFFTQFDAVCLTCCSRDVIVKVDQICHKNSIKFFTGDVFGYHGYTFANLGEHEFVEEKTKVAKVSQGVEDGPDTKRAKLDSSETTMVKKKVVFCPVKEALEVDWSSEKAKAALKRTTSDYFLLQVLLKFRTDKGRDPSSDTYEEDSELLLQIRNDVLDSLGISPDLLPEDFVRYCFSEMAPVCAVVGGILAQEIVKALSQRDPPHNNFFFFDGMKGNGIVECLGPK
T1 sequence (looked up) 2: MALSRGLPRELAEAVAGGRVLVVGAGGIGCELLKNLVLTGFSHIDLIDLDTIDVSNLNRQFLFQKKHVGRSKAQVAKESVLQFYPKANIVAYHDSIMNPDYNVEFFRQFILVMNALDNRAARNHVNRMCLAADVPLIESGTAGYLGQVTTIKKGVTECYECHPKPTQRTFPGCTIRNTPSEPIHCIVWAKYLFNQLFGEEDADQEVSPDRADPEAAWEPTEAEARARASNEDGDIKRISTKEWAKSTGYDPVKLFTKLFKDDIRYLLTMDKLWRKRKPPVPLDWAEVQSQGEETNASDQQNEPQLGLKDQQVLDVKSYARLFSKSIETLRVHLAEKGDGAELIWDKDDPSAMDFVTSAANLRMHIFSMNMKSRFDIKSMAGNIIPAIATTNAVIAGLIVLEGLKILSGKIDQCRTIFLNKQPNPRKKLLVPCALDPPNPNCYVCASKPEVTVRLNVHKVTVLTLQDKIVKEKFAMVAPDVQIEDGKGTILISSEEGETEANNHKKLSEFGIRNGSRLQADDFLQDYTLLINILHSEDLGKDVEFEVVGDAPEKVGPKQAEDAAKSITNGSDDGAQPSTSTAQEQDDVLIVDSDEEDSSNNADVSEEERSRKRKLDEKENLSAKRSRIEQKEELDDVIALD
Put plainly: BLI; Octet (Forte Bio); sensors loaded with 0.1 mg/ml AOS1/UBA2; GST-FAT10 at 0.5, 0.25, 0.1 and 0.05 mg/ml measured versus GST; buffer TNT (50 mM Tris HCl pH 7.6, 100 mM NaCl, 0.1% Triton X-100); association 600 s, dissociation 600 s. The settings on record: both partners purified.

The target of assay [2] is T1, AOS1/UBA2, heterodimeric SUMO E1 …. Put plainly: co-IP; recombinant proteins: 25 nM AOS1/UBA2 with 0.7 uM of each FAT10 variant in in vitro buffer without ATP; FAT10 precipitated with the antibody 4F1 on protein A sepharose, 3 h at 8 °C; blots for the E1 subunits. The note with it: both partners purified.

Changes are numbered by the printed parent chain.

B1: GST-FAT10 (natural protein, human, UniProt O15205 1-165, looked up)
chain: MAPNASCLCVHVRSEEWDLMTFDANPYDSVKKIKEHVRSKTKVPVQDQVLLLGSKILKPRRSLSSYGIDKEKTIHLTLKVVKPSDEELPLFLVESGDEAKRHLLQVRRSSSVAQVKAMIETKTGIIPETQIVTCNGKRLEDGKMMADYGIRKGNLLFLACYCIGG
notes: FAT10 (ubiquitin D, UBD), human; also called FAT10 (in the sentence that gives the Kd); source: E. coli BL21(DE3) (pGEX4T-3-FAT10), purified (glutathione agarose, PD-10 desalting)
Consider B1, for which, in assay [1], the Kd is 1.8 µM.

B2: FAT10, recombinant, untagged (natural protein, human, UniProt O15205 2-165, looked up)
chain: APNASCLCVHVRSEEWDLMTFDANPYDSVKKIKEHVRSKTKVPVQDQVLLLGSKILKPRRSLSSYGIDKEKTIHLTLKVVKPSDEELPLFLVESGDEAKRHLLQVRRSSSVAQVKAMIETKTGIIPETQIVTCNGKRLEDGKMMADYGIRKGNLLFLACYCIGG
notes: FAT10 (ubiquitin D, UBD), human; also called wild-type FAT10; source: E. coli BL21(DE3) (pSUMO-FAT10), purified (HisTrap, tag removal with ULP-1, cation exchange)
Turning to B2, the binding result in assay [2] is “binds”.

B3: FAT10-AV, recombinant, untagged (natural protein, human, UniProt O15205 2-165, looked up)
chain: B2 chain with G163A, G164V
notes: FAT10 (ubiquitin D, UBD), human, C-terminal diglycine motif changed from GG to AV; also called FAT10 diglycine mutant FAT10-AV; source: E. coli BL21(DE3) (pSUMO-FAT10-AV), purified (HisTrap, tag removal with ULP-1, cation exchange)
On to B3, for which, in assay [2], the binding result is on record as “binds”.

The record behind these values is paper PMC6773726, “The ubiquitin-like modifier FAT10 interferes with SUMO activation” (Nature Communications, 2019).
